Measurements: US10766960 (dated 2020)
Read-outs that look alike come from different tables or passages of the source.

Key:
Experiment in all cases: SPR
[1] = target: T1, FcgRIIa R (human, UniProt P12318)
T1 chain: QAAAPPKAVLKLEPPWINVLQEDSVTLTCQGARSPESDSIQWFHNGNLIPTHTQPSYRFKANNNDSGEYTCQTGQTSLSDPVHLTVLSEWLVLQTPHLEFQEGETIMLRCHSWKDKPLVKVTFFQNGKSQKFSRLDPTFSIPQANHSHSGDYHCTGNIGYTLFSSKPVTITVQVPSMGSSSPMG

[2] = target: T2, FcgRIIa H (human, UniProt P12318)
T2 chain: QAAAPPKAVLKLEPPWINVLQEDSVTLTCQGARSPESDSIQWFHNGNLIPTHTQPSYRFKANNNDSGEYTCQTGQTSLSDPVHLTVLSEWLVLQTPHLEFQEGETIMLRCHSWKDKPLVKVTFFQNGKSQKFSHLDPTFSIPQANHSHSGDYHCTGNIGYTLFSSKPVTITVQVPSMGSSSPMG

[3] = target: T3, FcgRIIb (human, UniProt P31994)
T3 chain: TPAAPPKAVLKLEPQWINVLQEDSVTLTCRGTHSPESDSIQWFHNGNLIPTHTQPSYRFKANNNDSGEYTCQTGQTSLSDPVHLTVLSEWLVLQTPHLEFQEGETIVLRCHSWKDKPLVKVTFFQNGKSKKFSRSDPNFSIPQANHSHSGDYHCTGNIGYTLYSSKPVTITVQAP

[4] = target: T4, FcgRIa (human, UniProt P12314)
T4 chain: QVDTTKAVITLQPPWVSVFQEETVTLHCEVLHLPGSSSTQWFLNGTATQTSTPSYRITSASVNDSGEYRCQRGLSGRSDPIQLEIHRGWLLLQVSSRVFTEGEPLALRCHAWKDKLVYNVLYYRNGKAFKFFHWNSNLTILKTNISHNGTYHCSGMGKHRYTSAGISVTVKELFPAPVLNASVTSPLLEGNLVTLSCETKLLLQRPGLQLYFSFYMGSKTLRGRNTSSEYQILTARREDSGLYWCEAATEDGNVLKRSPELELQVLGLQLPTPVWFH

[5] = target: T5, FcgRIIIa V (human, UniProt P08637)
[6] = target: T6, FcgRIIIa F (human, UniProt P08637)
[7] = target: T3, FcgRIIb
[8] = target: T6, FcgRIIIa F; remark: listed apart in the source
[9] = target: T2, FcgRIIa H
[10] = target: T4, FcgRIa
[11] = target: T1, FcgRIIa R
[12] = target: T5, FcgRIIIa V; remark: listed apart in the source

T6 sequence (P08637 17-208): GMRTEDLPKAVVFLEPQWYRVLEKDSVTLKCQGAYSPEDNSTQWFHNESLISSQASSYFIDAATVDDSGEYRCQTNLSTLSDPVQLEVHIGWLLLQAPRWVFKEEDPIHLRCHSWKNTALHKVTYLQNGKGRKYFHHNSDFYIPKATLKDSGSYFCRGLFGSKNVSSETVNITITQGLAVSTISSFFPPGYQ
T5 sequence (P08637 17-208 F176V): as the sequence (P08637 17-208) above, with F160V counted along it

Binder | Kd [1] | Kd [2] | Kd [3] | Kd [4] | Kd [5] | Kd [6] | Kd [7] | Kd [8] | Kd [9] | Kd [10] | Kd [11] | Kd [12]
H240-Kn210/H240-Hl076/L73-k0 (antibody) chain 1: QDQLVQSGAEVKKPGASVKVSCKASGFNIKDTYIQWVRQAPGQGLEWMGRIDPLRKQTKYREKFEGRVTITADTSTNTAYMELSSLRSEDTAVYYCVRSGREFDYWGQGTLVTVSSASTKGPSVFPLAPSSKSTSGGTAALGCLVKDYFPEPVTVSWNSGALTSGVHTFPAVLQSSGLYSLSSVVTVPSSSLGTQTYICNVNHKPSNTKVDKKVEPKSCDKTHTCPPCPAPEIQWGPMVFLFPPKPKDTLMISRTPEVTCVVVDVSDEEPEVKFNWYVDGVEVHNAKTKPREEQYNATYRVVSVLTVLHQDWLNGKEYKCKVSNKALPAPIEKTISKAKGQPREPQVCTLPPSRDELTKNQVSLWCLVKGFYPSDIAVEWESNGQPENNYKTTPPVLDSDGSFFLYSKLTVDKSRWQQGNVFSCSVMHEALHNHYTQKSLSLSP chain 2: QDQLVQSGAEVKKPGASVKVSCKASGFNIKDTYIQWVRQAPGQGLEWMGRIDPLRKQTKYREKFEGRVTITADTSTNTAYMELSSLRSEDTAVYYCVRSGREFDYWGQGTLVTVSSASTKGPSVFPLAPSSKSTSGGTAALGCLVKDYFPEPVTVSWNSGALTSGVHTFPAVLQSSGLYSLSSVVTVPSSSLGTQTYICNVNHKPSNTKVDKKVEPKSCDKTHTCPPCPAPELLGGPSVFLFPPKPKDTLMISRTPEVTCVVVDVSHEEPEVKFNWYVDGVEVHNAKTKPREEQYNSTYRVVSVLTVLHQDWLNGKEYKCKVSNDALPMPIEETISKAKGQPREPQVYTLPPSRCELTKNQVSLSCAVKGFYPSDIAVEWESNGQPENNYKTTPPVLDSDGSFFLVSKLTVDKSRWQQGNVFSCSVMHEALHNHYTQKSLSLSP chain 3: DIQMTQSPSSLSASVGDRVTITCRASQDIHKYIAWYQQKPGQAPRLLIQYTSTLQPGVPSRFSGSGSGTDYTFTISSLQPEDIATYYCLQYEQLRTFGGGTKVEIKRTVAAPSVFIFPPSDEQLKSGTASVVCLLNNFYPREAKVQWKVDNALQSGNSQESVTEQDSKDSTYSLSSTLTLSKADYEKHKVYACEVTHQGLSSPVTKSFNRGEC | 590 nM | 150 nM | 4200 nM | 0.079 nM | 0.49 nM | 1.8 nM |  |  |  |  |  | 
H240-FA020/H240-FB084/L73-k0 (antibody) chain 1: QDQLVQSGAEVKKPGASVKVSCKASGFNIKDTYIQWVRQAPGQGLEWMGRIDPLRKQTKYREKFEGRVTITADTSTNTAYMELSSLRSEDTAVYYCVRSGREFDYWGQGTLVTVSSASTKGPSVFPLAPSSKSTSGGTAALGCLVKDYFPEPVTVSWNSGALTSGVHTFPAVLQSSGLYSLSSVVTVPSSSLGTKTYTCNVNHKPSNTKVDKKVEPKSCDKTHTCPPCPAPEYYWGPSVFLFPPKPKDTLMISRTPEVTCVVVDVSDEEPEVKFNWYVDGVEVHNAKTKPREEQYNATYRVVSVLTVLHQDWLNGKEYKCKVSNKALPAPIEKTISKAKGQPREPQVYTLPPSRKEKTKNQVSLTCLVKGFYPSDIAVEWESNGQPENNYKTTPPVLDSDGSFFLYSKLTVDKSRWQQGNVFSCSVMHEALHNRYTQKSLSLSP chain 2: QDQLVQSGAEVKKPGASVKVSCKASGFNIKDTYIQWVRQAPGQGLEWMGRIDPLRKQTKYREKFEGRVTITADTSTNTAYMELSSLRSEDTAVYYCVRSGREFDYWGQGTLVTVSSASTKGPSVFPLAPSSKSTSESTAALGCLVEDYFPEPVTVSWNSGALTSGVHTFPAVLQSSGLYSLSSVVTVPSSNFGTQTYTCNVDHKPSNTKVDKTVEPKSCDKTHTCPPCPAPELLGGPSVFLFPPKPKDTLMISRTPEVTCVVVDVSHEEPEVQFNWYVDGVEVHNAETKPREEQYNSTYRVVSVLTVLHQDWLNGKEYKCKVSNDALPMPIEETISKAKGQPREPQVYTLPPSREEMTKNQVSLTCLVKGFYPSDIAVEWESEGQPENNYKTTPPVLDSDGSFFLYSKLTVDKSRWQQGNVFSCSVMHEALHNHYTQESLSLSP chain 3: DIQMTQSPSSLSASVGDRVTITCRASQDIHKYIAWYQQKPGQAPRLLIQYTSTLQPGVPSRFSGSGSGTDYTFTISSLQPEDIATYYCLQYEQLRTFGGGTKVEIKRTVAAPSVFIFPPSDEQLKSGTASVVCLLNNFYPREAKVQWKVDNALQSGNSQESVTEQDSKDSTYSLSSTLTLSKADYEKHKVYACEVTHQGLSSPVTKSFNRGEC |  |  |  |  |  |  | 1400 nM | 3.5 nM | 57 nM | 0.068 nM | 220 nM | 1 nM
H240-FA009/H240-FB020/L73-k0 (antibody) chain 1: QDQLVQSGAEVKKPGASVKVSCKASGFNIKDTYIQWVRQAPGQGLEWMGRIDPLRKQTKYREKFEGRVTITADTSTNTAYMELSSLRSEDTAVYYCVRSGREFDYWGQGTLVTVSSASTKGPSVFPLAPSSKSTSGGTAALGCLVKDYFPEPVTVSWNSGALTSGVHTFPAVLQSSGLYSLSSVVTVPSSSLGTKTYICNVNHKPSNTKVDKKVEPKSCDKTHTCPPCPAPEYYWGPSVFLFPPKPKDTLMISRTPEVTCVVVDVSDEEPEVKFNWYVDGVEVHNAKTKPREEQYNATYRVVSVLTVLHQDWLNGKEYKCKVSNKALPAPIEKTISKAKGQPREPQVYTLPPSRKEMTKNQVSLTCLVKGFYPSDIAVEWESNGQPENNYKTTPPVLDSDGSFFLYSKLTVDKSRWQQGNVFSCSVMHEALHNRYTQKSLSLSP chain 2: QDQLVQSGAEVKKPGASVKVSCKASGFNIKDTYIQWVRQAPGQGLEWMGRIDPLRKQTKYREKFEGRVTITADTSTNTAYMELSSLRSEDTAVYYCVRSGREFDYWGQGTLVTVSSASTKGPSVFPLAPSSKSTSGGTAALGCLVEDYFPEPVTVSWNSGALTSGVHTFPAVLQSSGLYSLSSVVTVPSSSLGTQTYICNVNHKPSNTKVDKKVEPKSCDKTHTCPPCPAPELLGGPSVFLFPPKPKDTLMISRTPEVTCVVVDVSHEEPEVQFNWYVDGVEVHNAKTKPREEQYNSTYRVVSVLTVLHQDWLNGKEYKCKVSNDALPMPIEETISKAKGQPREPQVYTLPPSREEMTKNQVSLTCLVKGFYPSDIAVEWESNGQPENNYKTTPPVLDSDGSFFLYSKLTVDKSRWQQGNVFSCSVMHEALHNHYTQESLSLSP chain 3: DIQMTQSPSSLSASVGDRVTITCRASQDIHKYIAWYQQKPGQAPRLLIQYTSTLQPGVPSRFSGSGSGTDYTFTISSLQPEDIATYYCLQYEQLRTFGGGTKVEIKRTVAAPSVFIFPPSDEQLKSGTASVVCLLNNFYPREAKVQWKVDNALQSGNSQESVTEQDSKDSTYSLSSTLTLSKADYEKHKVYACEVTHQGLSSPVTKSFNRGEC |  |  |  |  |  |  | 1400 nM | 3.9 nM | 64 nM | 0.12 nM | 250 nM | 1.1 nM
